Experiments:
[1] = Zeta potential measurements (Zetasizer Nano ZS90); type: physicochemical; conditions: in PBS; voltage 150 mV
Description: Zeta Potential Measurements: Synthesized conjugates were characterized with respect to their ζ potential using a Zetasizer Nano ZS90 (Malvern Instruments, Malvern, UK). Ten microliter aliquots of nanoconjugate samples were diluted in 0.99 mL PBS, and the voltage applied was 150 mV. Data represent the mean of three measurements±their standard deviation.

[2] = Dynamic light scattering, hydrodynamic diameter and PDI; type: physicochemical; conditions: DLS in PBS, conjugates without attached rhodamine
Description: Dynamic Light Scattering: Synthesized conjugates were characterized using a Zetasizer Nano ZS90 (Malvern Instruments, Malvern, UK). Ten microliter aliquots of nanoconjugate samples were diluted in 0.99 mL PBS and were measured 3 times using a clear cuvette. Data represent the mean of three measurements and polydispersity index.

brain cells = conditions: cortex
Description: For the particulate fluorescence analysis, images were converted to binary images, and then 5 ROIs 20*20 μm^2 were drawn per image. The area of each particle on the ROI was measured using the Image) particle analysis tool, where each particle was measured separately. Sizes were then summarized, sorted, and further analyzed using Minitab18 software (Minitab, Inc, State College, Pa., USA). Particulate areas observed between different conditions were compared via a one-way ANOVA combined with post-hoc Tukey tests to test differences between each experimental group.
A more reliable method to separate the particulate from the cellular fluorescence was reasoned to be by adjusting the levels of the image and converting it to a binary image, allowing the detection of only particulates eliminating interference of the diffused background. FIGS. 29A-29D illustrate intracellular fluorescence of mini nanodrugs.
Each ROI was converted to binary (black and white) image and the area and number of particles were quantified. 3 images per brain area were tested for 3 mice per group.
The particle content (example of ROI in FIG. 29A) then was measured. The average size of the particulate fluorescence is a proxy to estimate the intracellular load of fluorescent nanoconjugates following their injections. An example of such an analysis is shown in FIG. 29A: the yellow squares indicate regions of interest that were used to quantify particulate fluorescence. FIGS. 29B-29C summarize the average size of the intracellular fluorescence particles in the cortex ([…]), midbrain (FIG. 29C), and the hippocampus (FIG. 29C).

neurons and astroglia = conditions: mouse, in vivo
Description: Neuronal and glial counterstaining: In FIGS. 27A-27C, brain tissue from drug-injected mice was counterstained to determine if our nanoconjugates are taken up by neurons or glia. Cryosections ([…]) were air-dried for 10 min, fixed with 2% paraformaldehyde for 5 min, and then rinsed three times with PBS. […] The antibodies anti-Neun (Abcam, Cambridge, Mass., USA; AB104225) and anti-GFAP (Neuromics, Edina, Minn., USA; C1122102) were then diluted 1:500 in PBS-T and tissue sections incubated simultaneously with antibody solutions overnight at 4° C. in a humid chamber. Tissue sections were then washed five times with PBS-T and incubated in appropriate secondary antibody diluted 1:250 in PBS-T, for 2-4 h. After five washes in PBS at room temperature, sections were mounted between coverslips in Fluoromount-G with DAPI.
To this end, after systemic injection of our D-conjugates we counterstained brain tissue sections of hippocampus and cortex with anti-Neun to label neurons, and with anti-GFAP to label astroglia (FIGS. 27A-27C) and inspected the stained sections for red fluorescent particulates. […] Positive neurons and glia cells were counted after systemic injection of conjugates containing D1, D3, AC189 peptides, and of a control PBS (FIGS. 27A-27C).

[3] = system: blood-brain barrier (BBB); conditions: dose 8×
Description: AD-Mouse models: 6-8 month old […] (B6.Cg-Tg (APPswe/PS1ΔE9) 85Dbo/J hemizygous) mice were obtained from Jackson Laboratories. Mouse maintenance and experimental procedures followed the guidelines established by the Cedars Sinai Institutional Animal Care and Use Committee (IACUC Protocol #7416). Three to four mice of each sex were used for each experiment. Nanoconjugates were dissolved freshly in PBS (pH 7.4) prior to each experiment and injected intravenously (i.v.) into the lateral tail vein. […] Mice were anesthetized with isoflurane beforehand and their tails were briefly warmed to facilitate injections. The drug injection volume was kept constant at 150 μL. After each injection, mice were promptly returned to their cages. Brains were collected and preserved in OTC for immunostaining.
The brains were harvested and a 14 μm thick slices which were fixed and stained with DAPI to envision the nuclei
A comparison with normal brain was beneficial for understanding of the development of Alzheimer's disease.

[4] = sagittal sinus, 0.068 μmol/kg
[5] = not given; remark: listed apart in the source
[6] = 0.5, 1, 2 and 4 hours after injection
[7] = comparison, Israel et al., 2019; cited from earlier work
[8] = system: blood-brain barrier (BBB); conditions: Israel et al., 2019; cited from earlier work

PMLA/LLL/AP2/rhodamine [P/LLL/AP2]
ζ potential [1]: −11.6 mV
Hydrodynamic diameter (volume mode) [2]: 4.45 nm
PDI [2]: (0.39)
PDI ([2]; listed as P/LLL/AP-2): 0.39
average area per particle (brain cells): 0.42±0.72 μm^2
cell association in GFAP and NEUN staining (neurons and astroglia): no cell association
fluorescence intensity in AD brain [3]: 10 units
serum concentration at 120 minutes (0.068 μmol/kg injection): 1.15e+08 µM
serum drug concentration at 120 minutes post injection (0.068 μmol/kg injection): 115 µM
serum half-life (i.v. 0.068 μmol/kg, single exponential decay fit): 1.28 h
optical half-life (optically measured serum clearance) [4]: 1.22 h
estimated parenchyma concentration ([5]; cortex, 120 min, 0.068 μmol/kg injection): 0.049 ± 0.001 µmol/mL
percentage of free serum drug detected in the brain ([5]; within 120 minutes after i.v. administration): ≥ 40%
Visibility of nanoconjugate around blood vessels in ex vivo brain slices [6]: visible around blood vessels for two hours and almost disappeared at 4 hours
half-life in blood [7]: 1.28 h
half-life of first decline in brain parenchyma [8]: > 2 h
time independent plateau in parenchyma [8]: > 240 min
